Test results from PMC4786724, “NdhM Subunit Is Required for the Stability and the Function of NAD(P)H Dehydrogenase Complexes Involved in CO2 Uptake in Synechocystis sp. Strain PCC 6803* ^([image sbox.jpg])” (The Journal of Biological Chemistry, 2015).

Key:
[1] = target: T1, NdhI-His6 (Synechocystis sp. PCC 6803, UniProt P26525 1-193); experiment: pull-down; GST-NdhM on glutathione-Sepharose 4B resin as bait, His-tagged Ndh subunits as prey; 2 h at 4 °C in 20 mM Tris-HCl pH 7.5, 100 mM NaCl, 0.1 mM EDTA, 0.2% Triton, 10% glycerol; washed five times with 300 mM NaCl, 0.5% Nonidet P-40; eluates blotted with anti-His antibody; details: both partners purified
T1 construct: NdhI subunit of NDH-1, Synechocystis sp; PCC 6803; fragment containing ndhI cloned into pET28a; also called His-tagged NdhI; source: E. coli BL21(DE3) pLysS, purified (nickel column)
T1 sequence (P26525 whole entry, the tested form may be a part): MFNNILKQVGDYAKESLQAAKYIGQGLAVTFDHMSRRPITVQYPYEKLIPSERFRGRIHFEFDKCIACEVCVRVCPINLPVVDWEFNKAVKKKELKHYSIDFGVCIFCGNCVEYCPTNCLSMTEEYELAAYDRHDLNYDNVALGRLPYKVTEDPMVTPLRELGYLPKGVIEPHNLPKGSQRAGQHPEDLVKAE

[2] = target: T2, NdhH-His6 (Synechocystis sp. PCC 6803, UniProt P27724 1-394); experiment: as above; details: both partners purified
T2 construct: NdhH subunit of NDH-1, Synechocystis sp; PCC 6803; fragment containing ndhH cloned into pET28a; also called His-tagged NdhH; source: E. coli BL21(DE3) pLysS, purified (nickel column)
T2 sequence (looked up): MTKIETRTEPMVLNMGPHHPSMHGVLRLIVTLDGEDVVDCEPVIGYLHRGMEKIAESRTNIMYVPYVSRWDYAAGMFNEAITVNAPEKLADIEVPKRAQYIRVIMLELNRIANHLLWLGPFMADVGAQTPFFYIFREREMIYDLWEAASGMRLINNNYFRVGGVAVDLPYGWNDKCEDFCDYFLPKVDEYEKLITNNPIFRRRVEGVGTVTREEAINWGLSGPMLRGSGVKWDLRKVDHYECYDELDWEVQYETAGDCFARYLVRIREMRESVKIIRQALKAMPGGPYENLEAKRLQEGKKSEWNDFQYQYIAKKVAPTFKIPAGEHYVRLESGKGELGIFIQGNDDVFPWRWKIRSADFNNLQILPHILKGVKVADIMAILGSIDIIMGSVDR

B1: GST-NdhM (natural protein, Synechocystis sp. PCC 6803, UniProt P74338 1-121, looked up)
chain: MLVKSTTRHVRIFSAEVQGNELIPSNNVLTMDVDPDNEFVWNEDALQQVYRRFDELVESYSGEDLTDYNLRRIGSDLEHFIRDLLQAGKVSYNLDCRVLNYSMGLPKVENQETAGKYWLDN
notes: NdhM subunit of NDH-1, Synechocystis sp; PCC 6803, gene slr1623 (ndhM); fragment containing ndhM cloned into pGEX-4T-1; also called recombinant NdhM fused with GST; NdhM fused to GST; source: E. coli BL21(DE3) pLysS, purified (glutathione-Sepharose 4B column)
binding result [1]: binds | binding result [2]: binds
